Data on two molecules can be found in paper PMC7409549, “A time-resolved interaction analysis of Bem1 reconstructs the flow of Cdc42 during polar growth” (Life Science Alliance, 2020).

For the experiment, the target named is T1, 6xHIS-Nba1_(202-289)-SNAP (S. cerevisiae, UniProt Q08229 202-289).
T1 construct: Nba1, S. cerevisiae, residues 202-289; also called the PxxP site; source: E. coli BL21DE3, purified (HisTrap HP, size-exclusion chromatography); not shown: 6xHIS, N-terminal, kept; SNAP-tag, C-terminal, kept
T1 sequence (looked up): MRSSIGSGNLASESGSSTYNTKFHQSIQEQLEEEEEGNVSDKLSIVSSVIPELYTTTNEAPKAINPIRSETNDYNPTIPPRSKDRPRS
Description: SPR; Biacore X100; GST-SH3 domains captured on an anti-GST antibody CM5 chip, free GST on the reference cell; 6xHis-Nba1_(202-289)-SNAP as analyte; HBSEP buffer (10 mM Hepes, 150 mM NaCl, 3 mM EDTA, 0.05% Tween 20, pH 7.4); equilibrium KD. The settings on record: both partners purified.

B1: GST-SH3_(Boi2) (domain or fragment, S. cerevisiae, UniProt P39969 43-107, looked up)
chain: GNFPMYIAINEYFKRMEDELDMKPGDKIKVITDDEEYKDGWYFGRNLRTNEEGLYPVVFTQKITV
notes: SH3 domain of Boi2, S. cerevisiae; source: E. coli BL21DE3, purified (GSTrap, Superdex 200); not shown: GST, N-terminal, kept
For B1, the Kd (as a rule, the concentration at which binding is half-saturated) was determined as 1970 nM. That is a single-digit micromolar value.

B2: GST-SH3_(Boi1) (domain or fragment, S. cerevisiae, UniProt P38041 13-77, looked up)
chain: KSFPLYIAVNQYSKRMEDELNMKPGDKIKVITDDGEYNDGWYYGRNLRTKEEGLYPAVFTKRIAI
notes: SH3 domain of Boi1, S. cerevisiae; also called GST fusion to SH3_(Boi1); source: E. coli BL21DE3, purified (GSTrap, Superdex 200) for SPR; coupled to glutathione beads from extract for the pull-down; not shown: GST, N-terminal, kept
Turning to B2, the Kd is roughly 740 nM.
